Laboratory results from US12679878B2, “CRF2 receptor agonists and their use in therapy” (SANOFI, priority 2020, dated 2026).
Starred links: 1 amine or outer side, 2 acyl side, 3 side chain; linkers in the order of their positions; H or OH if unused. Non-standard residues stand in square brackets, D forms with d. Groups on a side chain read outwards from the residue. No end group written: not given here. *: point of attachment. C18 diacid = O=C(O)CCCCCCCCCCCCCCCCC(=O)*; γGlu = O=C(O)[C@H](CCC(=O)[*:2])N[*:1]; AEEA = NCCOCCOCC(=O)O; Aib = CC(C)(N)C(=O)O

B1: peptide of SEQ ID NO: 157 (peptide)
peptide: Ac-IVLSLD[dV]PIKLK([AEEA-AEEA-γGlu-C18 diacid])QILLEQARQK[Aib]QREQAEKNKQILEQV-NH2
SMILES: CC[C@H](C)[C@H](NC(C)=O)C(=O)N[C@H](C(=O)N[C@@H](CC(C)C)C(=O)N[C@@H](CO)C(=O)N[C@@H](CC(C)C)C(=O)N[C@@H](CC(=O)O)C(=O)N[C@@H](C(=O)N1CCC[C@H]1C(=O)N[C@H](C(=O)N[C@@H](CCCCN)C(=O)N[C@@H](CC(C)C)C(=O)N[C@@H](CCCCNC(=O)COCCOCCNC(=O)COCCOCCNC(=O)CC[C@H](NC(=O)CCCCCCCCCCCCCCCCC(=O)O)C(=O)O)C(=O)N[C@@H](CCC(N)=O)C(=O)N[C@H](C(=O)N[C@@H](CC(C)C)C(=O)N[C@@H](CC(C)C)C(=O)N[C@@H](CCC(=O)O)C(=O)N[C@@H](CCC(N)=O)C(=O)N[C@@H](C)C(=O)N[C@@H](CCCNC(=N)N)C(=O)N[C@@H](CCC(N)=O)C(=O)N[C@@H](CCCCN)C(=O)NC(C)(C)C(=O)N[C@@H](CCC(N)=O)C(=O)N[C@@H](CCCNC(=N)N)C(=O)N[C@@H](CCC(=O)O)C(=O)N[C@@H](CCC(N)=O)C(=O)N[C@@H](C)C(=O)N[C@@H](CCC(=O)O)C(=O)N[C@@H](CCCCN)C(=O)N[C@@H](CC(N)=O)C(=O)N[C@@H](CCCCN)C(=O)N[C@@H](CCC(N)=O)C(=O)N[C@H](C(=O)N[C@@H](CC(C)C)C(=O)N[C@@H](CCC(=O)O)C(=O)N[C@@H](CCC(N)=O)C(=O)N[C@H](C(N)=O)C(C)C)[C@@H](C)CC)[C@@H](C)CC)[C@@H](C)CC)C(C)C)C(C)C
B2: peptide of SEQ ID NO: 159 (peptide)
peptide: Ac-IVLSLD[dV]PIKLK([AEEA-AEEA-γGlu-C18 diacid])QILLEQERQE[Aib]QREQAEKNKQILEQV-NH2
SMILES: CC[C@H](C)[C@H](NC(C)=O)C(=O)N[C@H](C(=O)N[C@@H](CC(C)C)C(=O)N[C@@H](CO)C(=O)N[C@@H](CC(C)C)C(=O)N[C@@H](CC(=O)O)C(=O)N[C@@H](C(=O)N1CCC[C@H]1C(=O)N[C@H](C(=O)N[C@@H](CCCCN)C(=O)N[C@@H](CC(C)C)C(=O)N[C@@H](CCCCNC(=O)COCCOCCNC(=O)COCCOCCNC(=O)CC[C@H](NC(=O)CCCCCCCCCCCCCCCCC(=O)O)C(=O)O)C(=O)N[C@@H](CCC(N)=O)C(=O)N[C@H](C(=O)N[C@@H](CC(C)C)C(=O)N[C@@H](CC(C)C)C(=O)N[C@@H](CCC(=O)O)C(=O)N[C@@H](CCC(N)=O)C(=O)N[C@@H](CCC(=O)O)C(=O)N[C@@H](CCCNC(=N)N)C(=O)N[C@@H](CCC(N)=O)C(=O)N[C@@H](CCC(=O)O)C(=O)NC(C)(C)C(=O)N[C@@H](CCC(N)=O)C(=O)N[C@@H](CCCNC(=N)N)C(=O)N[C@@H](CCC(=O)O)C(=O)N[C@@H](CCC(N)=O)C(=O)N[C@@H](C)C(=O)N[C@@H](CCC(=O)O)C(=O)N[C@@H](CCCCN)C(=O)N[C@@H](CC(N)=O)C(=O)N[C@@H](CCCCN)C(=O)N[C@@H](CCC(N)=O)C(=O)N[C@H](C(=O)N[C@@H](CC(C)C)C(=O)N[C@@H](CCC(=O)O)C(=O)N[C@@H](CCC(N)=O)C(=O)N[C@H](C(N)=O)C(C)C)[C@@H](C)CC)[C@@H](C)CC)[C@@H](C)CC)C(C)C)C(C)C
B3: peptide of SEQ ID NO: 140 (peptide)
peptide: IVLSLD[dV]PIKLK([AEEA-AEEA-γGlu-C18 diacid])QILLEQARQK[Aib]QRAQAEKNKRILERV-NH2
modifications: N-terminus assumed
SMILES: CC[C@H](C)[C@H](N)C(=O)N[C@H](C(=O)N[C@@H](CC(C)C)C(=O)N[C@@H](CO)C(=O)N[C@@H](CC(C)C)C(=O)N[C@@H](CC(=O)O)C(=O)N[C@@H](C(=O)N1CCC[C@H]1C(=O)N[C@H](C(=O)N[C@@H](CCCCN)C(=O)N[C@@H](CC(C)C)C(=O)N[C@@H](CCCCNC(=O)COCCOCCNC(=O)COCCOCCNC(=O)CC[C@H](NC(=O)CCCCCCCCCCCCCCCCC(=O)O)C(=O)O)C(=O)N[C@@H](CCC(N)=O)C(=O)N[C@H](C(=O)N[C@@H](CC(C)C)C(=O)N[C@@H](CC(C)C)C(=O)N[C@@H](CCC(=O)O)C(=O)N[C@@H](CCC(N)=O)C(=O)N[C@@H](C)C(=O)N[C@@H](CCCNC(=N)N)C(=O)N[C@@H](CCC(N)=O)C(=O)N[C@@H](CCCCN)C(=O)NC(C)(C)C(=O)N[C@@H](CCC(N)=O)C(=O)N[C@@H](CCCNC(=N)N)C(=O)N[C@@H](C)C(=O)N[C@@H](CCC(N)=O)C(=O)N[C@@H](C)C(=O)N[C@@H](CCC(=O)O)C(=O)N[C@@H](CCCCN)C(=O)N[C@@H](CC(N)=O)C(=O)N[C@@H](CCCCN)C(=O)N[C@@H](CCCNC(=N)N)C(=O)N[C@H](C(=O)N[C@@H](CC(C)C)C(=O)N[C@@H](CCC(=O)O)C(=O)N[C@@H](CCCNC(=N)N)C(=O)N[C@H](C(N)=O)C(C)C)[C@@H](C)CC)[C@@H](C)CC)[C@@H](C)CC)C(C)C)C(C)C
B4: peptide of SEQ ID NO: 162 (peptide)
peptide: Ac-IVLSLD[dV]PIELK([AEEA-AEEA-γGlu-C18 diacid])QILLEQERQK[Aib]QREQAEKNKQILEQV-NH2
SMILES: CC[C@H](C)[C@H](NC(C)=O)C(=O)N[C@H](C(=O)N[C@@H](CC(C)C)C(=O)N[C@@H](CO)C(=O)N[C@@H](CC(C)C)C(=O)N[C@@H](CC(=O)O)C(=O)N[C@@H](C(=O)N1CCC[C@H]1C(=O)N[C@H](C(=O)N[C@@H](CCC(=O)O)C(=O)N[C@@H](CC(C)C)C(=O)N[C@@H](CCCCNC(=O)COCCOCCNC(=O)COCCOCCNC(=O)CC[C@H](NC(=O)CCCCCCCCCCCCCCCCC(=O)O)C(=O)O)C(=O)N[C@@H](CCC(N)=O)C(=O)N[C@H](C(=O)N[C@@H](CC(C)C)C(=O)N[C@@H](CC(C)C)C(=O)N[C@@H](CCC(=O)O)C(=O)N[C@@H](CCC(N)=O)C(=O)N[C@@H](CCC(=O)O)C(=O)N[C@@H](CCCNC(=N)N)C(=O)N[C@@H](CCC(N)=O)C(=O)N[C@@H](CCCCN)C(=O)NC(C)(C)C(=O)N[C@@H](CCC(N)=O)C(=O)N[C@@H](CCCNC(=N)N)C(=O)N[C@@H](CCC(=O)O)C(=O)N[C@@H](CCC(N)=O)C(=O)N[C@@H](C)C(=O)N[C@@H](CCC(=O)O)C(=O)N[C@@H](CCCCN)C(=O)N[C@@H](CC(N)=O)C(=O)N[C@@H](CCCCN)C(=O)N[C@@H](CCC(N)=O)C(=O)N[C@H](C(=O)N[C@@H](CC(C)C)C(=O)N[C@@H](CCC(=O)O)C(=O)N[C@@H](CCC(N)=O)C(=O)N[C@H](C(N)=O)C(C)C)[C@@H](C)CC)[C@@H](C)CC)[C@@H](C)CC)C(C)C)C(C)C
B5: peptide of SEQ ID NO: 142 (peptide)
peptide: IVLSLD[dV]PIKLK([AEEA-AEEA-γGlu-C18 diacid])QILLEQARQK[Aib]QREQAEKNKRILERV-NH2
modifications: N-terminus assumed
SMILES: CC[C@H](C)[C@H](N)C(=O)N[C@H](C(=O)N[C@@H](CC(C)C)C(=O)N[C@@H](CO)C(=O)N[C@@H](CC(C)C)C(=O)N[C@@H](CC(=O)O)C(=O)N[C@@H](C(=O)N1CCC[C@H]1C(=O)N[C@H](C(=O)N[C@@H](CCCCN)C(=O)N[C@@H](CC(C)C)C(=O)N[C@@H](CCCCNC(=O)COCCOCCNC(=O)COCCOCCNC(=O)CC[C@H](NC(=O)CCCCCCCCCCCCCCCCC(=O)O)C(=O)O)C(=O)N[C@@H](CCC(N)=O)C(=O)N[C@H](C(=O)N[C@@H](CC(C)C)C(=O)N[C@@H](CC(C)C)C(=O)N[C@@H](CCC(=O)O)C(=O)N[C@@H](CCC(N)=O)C(=O)N[C@@H](C)C(=O)N[C@@H](CCCNC(=N)N)C(=O)N[C@@H](CCC(N)=O)C(=O)N[C@@H](CCCCN)C(=O)NC(C)(C)C(=O)N[C@@H](CCC(N)=O)C(=O)N[C@@H](CCCNC(=N)N)C(=O)N[C@@H](CCC(=O)O)C(=O)N[C@@H](CCC(N)=O)C(=O)N[C@@H](C)C(=O)N[C@@H](CCC(=O)O)C(=O)N[C@@H](CCCCN)C(=O)N[C@@H](CC(N)=O)C(=O)N[C@@H](CCCCN)C(=O)N[C@@H](CCCNC(=N)N)C(=O)N[C@H](C(=O)N[C@@H](CC(C)C)C(=O)N[C@@H](CCC(=O)O)C(=O)N[C@@H](CCCNC(=N)N)C(=O)N[C@H](C(N)=O)C(C)C)[C@@H](C)CC)[C@@H](C)CC)[C@@H](C)CC)C(C)C)C(C)C
B6: peptide of SEQ ID NO: 158 (peptide)
peptide: Ac-IVLSLD[dV]PIKLK([AEEA-AEEA-γGlu-C18 diacid])QILLEQERQK[Aib]QREQAEKNKQILEQV-NH2
SMILES: CC[C@H](C)[C@H](NC(C)=O)C(=O)N[C@H](C(=O)N[C@@H](CC(C)C)C(=O)N[C@@H](CO)C(=O)N[C@@H](CC(C)C)C(=O)N[C@@H](CC(=O)O)C(=O)N[C@@H](C(=O)N1CCC[C@H]1C(=O)N[C@H](C(=O)N[C@@H](CCCCN)C(=O)N[C@@H](CC(C)C)C(=O)N[C@@H](CCCCNC(=O)COCCOCCNC(=O)COCCOCCNC(=O)CC[C@H](NC(=O)CCCCCCCCCCCCCCCCC(=O)O)C(=O)O)C(=O)N[C@@H](CCC(N)=O)C(=O)N[C@H](C(=O)N[C@@H](CC(C)C)C(=O)N[C@@H](CC(C)C)C(=O)N[C@@H](CCC(=O)O)C(=O)N[C@@H](CCC(N)=O)C(=O)N[C@@H](CCC(=O)O)C(=O)N[C@@H](CCCNC(=N)N)C(=O)N[C@@H](CCC(N)=O)C(=O)N[C@@H](CCCCN)C(=O)NC(C)(C)C(=O)N[C@@H](CCC(N)=O)C(=O)N[C@@H](CCCNC(=N)N)C(=O)N[C@@H](CCC(=O)O)C(=O)N[C@@H](CCC(N)=O)C(=O)N[C@@H](C)C(=O)N[C@@H](CCC(=O)O)C(=O)N[C@@H](CCCCN)C(=O)N[C@@H](CC(N)=O)C(=O)N[C@@H](CCCCN)C(=O)N[C@@H](CCC(N)=O)C(=O)N[C@H](C(=O)N[C@@H](CC(C)C)C(=O)N[C@@H](CCC(=O)O)C(=O)N[C@@H](CCC(N)=O)C(=O)N[C@H](C(N)=O)C(C)C)[C@@H](C)CC)[C@@H](C)CC)[C@@H](C)CC)C(C)C)C(C)C
B7: peptide of SEQ ID NO: 163 (peptide)
peptide: Ac-IVLSLD[dV]PIHLK([AEEA-AEEA-γGlu-C18 diacid])QILLEQERQK[Aib]QREQAEKNKQILEQV-NH2

target: rat CRF2R α receptor (rat, UniProt P47866 20-411); assay: cell-based or functional assay
Sequence (P47866 20-411): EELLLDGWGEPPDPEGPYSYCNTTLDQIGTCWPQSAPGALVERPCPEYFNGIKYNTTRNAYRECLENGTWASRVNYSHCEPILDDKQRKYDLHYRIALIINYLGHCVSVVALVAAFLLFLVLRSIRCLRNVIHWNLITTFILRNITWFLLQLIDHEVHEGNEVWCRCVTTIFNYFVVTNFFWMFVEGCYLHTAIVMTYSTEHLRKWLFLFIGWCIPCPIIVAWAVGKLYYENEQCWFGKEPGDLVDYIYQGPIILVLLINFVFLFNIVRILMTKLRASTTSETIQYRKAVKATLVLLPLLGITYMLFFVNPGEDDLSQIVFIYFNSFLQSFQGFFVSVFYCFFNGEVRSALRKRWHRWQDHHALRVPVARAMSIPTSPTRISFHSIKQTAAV

Going from B1 to B2, the “EC50 [nM], 0% HSA (cAMP, A7R5 cells)” value rises from 1.14 nM to 15.6 nM (14-fold).

First: B3
Second: B4
The “EC50 [nM], 0% HSA (cAMP, A7R5 cells)” value of the first is 490-fold lower: 0.1 nM for the first, 48.6 nM for the second.

Compared with B5, B6 is 26-fold higher in “EC50 [nM], 0% HSA (cAMP, A7R5 cells)” value: 0.2 nM for the first, 5.29 nM for the second.

B7 was tested, and the “EC50 [nM], 0% HSA (cAMP, A7R5 cells)” value was 1.5 nM.
